Results taken from paper PMC8902617.

Target: filamentous actin (rabbit skeletal muscle actin) (UniProt P68135)
Assay: high-speed actin cosedimentation
Details: F-actin 0-25 µM; parent: 93.30 ± 3.05

**Q.** Which other: % max (maximal binding, % protein in the pellet) does the source give for “ASAP1 BAR-PH (residues 1-431), His6-tagged, wild type (from UniProt Q9QWY8) K153A; K156A; K159A” here?
**A.** 88.6%
